In the RNAGym collection of RNA variant scans (doi:10.1021/acssynbio.7b00057):

B1: Pistol ribozyme (parent)
chain: GGGUCGUUGUUCCAUAAUCGCGUGGAUAUGGCACGCAAGUUUCUACCGGGCACCGUAAAUGUCCGACUGGAGCCGUUCGGGCGGCUAUAAACAGACCUCAGGCCCGAAGCGUGGCGGCACCUGCCGCCGGUGGUAAAAAAGAUCGGAAGAGCACACGUCU

Variants of: B1
Experiment: aptazyme ON/OFF ratio, guanine; higher = stronger switching; co-transcriptional cleavage with and without guanine

Row | Variant | aptazyme ON/OFF ratio
1 | GGGUCGGAACAGGAUAAUCGCGUGGAUAUGGCACGCAAGUUUCUACCGGGCACCGUAAAUGUCCGACUGGAGCCGUUCGGGCGGCUAUAAACAGACCUCAGGCCCGAAGCGUGGCGGCACCUGCCGCCGGUGGUAAAAAAGAUCGGAAGAGCACACGUCU [U7G U8A G9A U10C U11A C12G C13G] | 1.07
2 | GGGUCGGAACAGAAUAAUCGCGUGGAUAUGGCACGCAAGUUUCUACCGGGCACCGUAAAUGUCCGACUGGAGCCGUUCGGGCGGCUAUAAACAGACCUCAGGCCCGAAGCGUGGCGGCACCUGCCGCCGGUGGUAAAAAAGAUCGGAAGAGCACACGUCU [U7G U8A G9A U10C U11A C12G C13A] | 1.11
3 | GGGUCGGAAAGCGAUAAUCGCGUGGAUAUGGCACGCAAGUUUCUACCGGGCACCGUAAAUGUCCGACUGGAGCCGUUCGGGCGGCUAUAAACAGACCUCAGGCCCGAAGCGUGGCGGCACCUGCCGCCGGUGGUAAAAAAGAUCGGAAGAGCACACGUCU [U7G U8A G9A U10A U11G C13G] | 1.07
4 | GGGUCGGAAAGCUAUAAUCGCGUGGAUAUGGCACGCAAGUUUCUACCGGGCACCGUAAAUGUCCGACUGGAGCCGUUCGGGCGGCUAUAAACAGACCUCAGGCCCGAAGCGUGGCGGCACCUGCCGCCGGUGGUAAAAAAGAUCGGAAGAGCACACGUCU [U7G U8A G9A U10A U11G C13U] | 1.16
5 | GGGUCGGAAAGCAAUAAUCGCGUGGAUAUGGCACGCAAGUUUCUACCGGGCACCGUAAAUGUCCGACUGGAGCCGUUCGGGCGGCUAUAAACAGACCUCAGGCCCGAAGCGUGGCGGCACCUGCCGCCGGUGGUAAAAAAGAUCGGAAGAGCACACGUCU [U7G U8A G9A U10A U11G C13A] | 1.14
6 | GGGUCGGAACAGCAUAAUCGCGUGGAUAUGGCACGCAAGUUUCUACCGGGCACCGUAAAUGUCCGACUGGAGCCGUUCGGGCGGCUAUAAACAGACCUCAGGCCCGAAGCGUGGCGGCACCUGCCGCCGGUGGUAAAAAAGAUCGGAAGAGCACACGUCU [U7G U8A G9A U10C U11A C12G] | 1.15
7 | GGGUCGGAACAACAUAAUCGCGUGGAUAUGGCACGCAAGUUUCUACCGGGCACCGUAAAUGUCCGACUGGAGCCGUUCGGGCGGCUAUAAACAGACCUCAGGCCCGAAGCGUGGCGGCACCUGCCGCCGGUGGUAAAAAAGAUCGGAAGAGCACACGUCU [U7G U8A G9A U10C U11A C12A] | 1.12
8 | GGGUCGGAAAGGUAUAAUCGCGUGGAUAUGGCACGCAAGUUUCUACCGGGCACCGUAAAUGUCCGACUGGAGCCGUUCGGGCGGCUAUAAACAGACCUCAGGCCCGAAGCGUGGCGGCACCUGCCGCCGGUGGUAAAAAAGAUCGGAAGAGCACACGUCU [U7G U8A G9A U10A U11G C12G C13U] | 1.17
9 | GGGUCGGAAAGGAAUAAUCGCGUGGAUAUGGCACGCAAGUUUCUACCGGGCACCGUAAAUGUCCGACUGGAGCCGUUCGGGCGGCUAUAAACAGACCUCAGGCCCGAAGCGUGGCGGCACCUGCCGCCGGUGGUAAAAAAGAUCGGAAGAGCACACGUCU [U7G U8A G9A U10A U11G C12G C13A] | 1.1
10 | GGGUCGGAAAGGGAUAAUCGCGUGGAUAUGGCACGCAAGUUUCUACCGGGCACCGUAAAUGUCCGACUGGAGCCGUUCGGGCGGCUAUAAACAGACCUCAGGCCCGAAGCGUGGCGGCACCUGCCGCCGGUGGUAAAAAAGAUCGGAAGAGCACACGUCU [U7G U8A G9A U10A U11G C12G C13G] | 1.12
11 | GGGUCGGAACACCAUAAUCGCGUGGAUAUGGCACGCAAGUUUCUACCGGGCACCGUAAAUGUCCGACUGGAGCCGUUCGGGCGGCUAUAAACAGACCUCAGGCCCGAAGCGUGGCGGCACCUGCCGCCGGUGGUAAAAAAGAUCGGAAGAGCACACGUCU [U7G U8A G9A U10C U11A] | 1.4
12 | GGGUCGGAAAGAUAUAAUCGCGUGGAUAUGGCACGCAAGUUUCUACCGGGCACCGUAAAUGUCCGACUGGAGCCGUUCGGGCGGCUAUAAACAGACCUCAGGCCCGAAGCGUGGCGGCACCUGCCGCCGGUGGUAAAAAAGAUCGGAAGAGCACACGUCU [U7G U8A G9A U10A U11G C12A C13U] | 1.07
13 | GGGUCGGAAAGUGAUAAUCGCGUGGAUAUGGCACGCAAGUUUCUACCGGGCACCGUAAAUGUCCGACUGGAGCCGUUCGGGCGGCUAUAAACAGACCUCAGGCCCGAAGCGUGGCGGCACCUGCCGCCGGUGGUAAAAAAGAUCGGAAGAGCACACGUCU [U7G U8A G9A U10A U11G C12U C13G] | 1.24
14 | GGGUCGGAAAGUUAUAAUCGCGUGGAUAUGGCACGCAAGUUUCUACCGGGCACCGUAAAUGUCCGACUGGAGCCGUUCGGGCGGCUAUAAACAGACCUCAGGCCCGAAGCGUGGCGGCACCUGCCGCCGGUGGUAAAAAAGAUCGGAAGAGCACACGUCU [U7G U8A G9A U10A U11G C12U C13U] | 1.15
15 | GGGUCGGAAAGUAAUAAUCGCGUGGAUAUGGCACGCAAGUUUCUACCGGGCACCGUAAAUGUCCGACUGGAGCCGUUCGGGCGGCUAUAAACAGACCUCAGGCCCGAAGCGUGGCGGCACCUGCCGCCGGUGGUAAAAAAGAUCGGAAGAGCACACGUCU [U7G U8A G9A U10A U11G C12U C13A] | 1.07
16 | GGGUCGGAACUUAAUAAUCGCGUGGAUAUGGCACGCAAGUUUCUACCGGGCACCGUAAAUGUCCGACUGGAGCCGUUCGGGCGGCUAUAAACAGACCUCAGGCCCGAAGCGUGGCGGCACCUGCCGCCGGUGGUAAAAAAGAUCGGAAGAGCACACGUCU [U7G U8A G9A U10C C12U C13A] | 1.08
17 | GGGUCGGAACUUGAUAAUCGCGUGGAUAUGGCACGCAAGUUUCUACCGGGCACCGUAAAUGUCCGACUGGAGCCGUUCGGGCGGCUAUAAACAGACCUCAGGCCCGAAGCGUGGCGGCACCUGCCGCCGGUGGUAAAAAAGAUCGGAAGAGCACACGUCU [U7G U8A G9A U10C C12U C13G] | 1.07
18 | GGGUCGGAACUUUAUAAUCGCGUGGAUAUGGCACGCAAGUUUCUACCGGGCACCGUAAAUGUCCGACUGGAGCCGUUCGGGCGGCUAUAAACAGACCUCAGGCCCGAAGCGUGGCGGCACCUGCCGCCGGUGGUAAAAAAGAUCGGAAGAGCACACGUCU [U7G U8A G9A U10C C12U C13U] | 1.12

Row | Variant | aptazyme ON/OFF ratio
19 | GGGUCGGAAAGGCAUAAUCGCGUGGAUAUGGCACGCAAGUUUCUACCGGGCACCGUAAAUGUCCGACUGGAGCCGUUCGGGCGGCUAUAAACAGACCUCAGGCCCGAAGCGUGGCGGCACCUGCCGCCGGUGGUAAAAAAGAUCGGAAGAGCACACGUCU [U7G U8A G9A U10A U11G C12G] | 1.2
20 | GGGUCGGAAAGUCAUAAUCGCGUGGAUAUGGCACGCAAGUUUCUACCGGGCACCGUAAAUGUCCGACUGGAGCCGUUCGGGCGGCUAUAAACAGACCUCAGGCCCGAAGCGUGGCGGCACCUGCCGCCGGUGGUAAAAAAGAUCGGAAGAGCACACGUCU [U7G U8A G9A U10A U11G C12U] | 1.65
21 | GGGUCGGAACUGGAUAAUCGCGUGGAUAUGGCACGCAAGUUUCUACCGGGCACCGUAAAUGUCCGACUGGAGCCGUUCGGGCGGCUAUAAACAGACCUCAGGCCCGAAGCGUGGCGGCACCUGCCGCCGGUGGUAAAAAAGAUCGGAAGAGCACACGUCU [U7G U8A G9A U10C C12G C13G] | 1.11
22 | GGGUCGGAACUGUAUAAUCGCGUGGAUAUGGCACGCAAGUUUCUACCGGGCACCGUAAAUGUCCGACUGGAGCCGUUCGGGCGGCUAUAAACAGACCUCAGGCCCGAAGCGUGGCGGCACCUGCCGCCGGUGGUAAAAAAGAUCGGAAGAGCACACGUCU [U7G U8A G9A U10C C12G C13U] | 1.28
23 | GGGUCGGAACUGAAUAAUCGCGUGGAUAUGGCACGCAAGUUUCUACCGGGCACCGUAAAUGUCCGACUGGAGCCGUUCGGGCGGCUAUAAACAGACCUCAGGCCCGAAGCGUGGCGGCACCUGCCGCCGGUGGUAAAAAAGAUCGGAAGAGCACACGUCU [U7G U8A G9A U10C C12G C13A] | 1.11
24 | GGGUCGGAACUCCAUAAUCGCGUGGAUAUGGCACGCAAGUUUCUACCGGGCACCGUAAAUGUCCGACUGGAGCCGUUCGGGCGGCUAUAAACAGACCUCAGGCCCGAAGCGUGGCGGCACCUGCCGCCGGUGGUAAAAAAGAUCGGAAGAGCACACGUCU [U7G U8A G9A U10C] | 2.73
25 | GGGUCGGAACAAUAUAAUCGCGUGGAUAUGGCACGCAAGUUUCUACCGGGCACCGUAAAUGUCCGACUGGAGCCGUUCGGGCGGCUAUAAACAGACCUCAGGCCCGAAGCGUGGCGGCACCUGCCGCCGGUGGUAAAAAAGAUCGGAAGAGCACACGUCU [U7G U8A G9A U10C U11A C12A C13U] | 1.13
26 | GGGUCGGAACAAGAUAAUCGCGUGGAUAUGGCACGCAAGUUUCUACCGGGCACCGUAAAUGUCCGACUGGAGCCGUUCGGGCGGCUAUAAACAGACCUCAGGCCCGAAGCGUGGCGGCACCUGCCGCCGGUGGUAAAAAAGAUCGGAAGAGCACACGUCU [U7G U8A G9A U10C U11A C12A C13G] | 1.07
27 | GGGUCGGAACAAAAUAAUCGCGUGGAUAUGGCACGCAAGUUUCUACCGGGCACCGUAAAUGUCCGACUGGAGCCGUUCGGGCGGCUAUAAACAGACCUCAGGCCCGAAGCGUGGCGGCACCUGCCGCCGGUGGUAAAAAAGAUCGGAAGAGCACACGUCU [U7G U8A G9A U10C U11A C12A C13A] | 1.2
28 | GGGUCGGAACUACAUAAUCGCGUGGAUAUGGCACGCAAGUUUCUACCGGGCACCGUAAAUGUCCGACUGGAGCCGUUCGGGCGGCUAUAAACAGACCUCAGGCCCGAAGCGUGGCGGCACCUGCCGCCGGUGGUAAAAAAGAUCGGAAGAGCACACGUCU [U7G U8A G9A U10C C12A] | 1.1
29 | GGGUCGGAACUUCAUAAUCGCGUGGAUAUGGCACGCAAGUUUCUACCGGGCACCGUAAAUGUCCGACUGGAGCCGUUCGGGCGGCUAUAAACAGACCUCAGGCCCGAAGCGUGGCGGCACCUGCCGCCGGUGGUAAAAAAGAUCGGAAGAGCACACGUCU [U7G U8A G9A U10C C12U] | 1.09
30 | GGGUCGGAACUGCAUAAUCGCGUGGAUAUGGCACGCAAGUUUCUACCGGGCACCGUAAAUGUCCGACUGGAGCCGUUCGGGCGGCUAUAAACAGACCUCAGGCCCGAAGCGUGGCGGCACCUGCCGCCGGUGGUAAAAAAGAUCGGAAGAGCACACGUCU [U7G U8A G9A U10C C12G] | 1.15
31 | GGGUCGGAACUAGAUAAUCGCGUGGAUAUGGCACGCAAGUUUCUACCGGGCACCGUAAAUGUCCGACUGGAGCCGUUCGGGCGGCUAUAAACAGACCUCAGGCCCGAAGCGUGGCGGCACCUGCCGCCGGUGGUAAAAAAGAUCGGAAGAGCACACGUCU [U7G U8A G9A U10C C12A C13G] | 1.06
32 | GGGUCGGAACUAAAUAAUCGCGUGGAUAUGGCACGCAAGUUUCUACCGGGCACCGUAAAUGUCCGACUGGAGCCGUUCGGGCGGCUAUAAACAGACCUCAGGCCCGAAGCGUGGCGGCACCUGCCGCCGGUGGUAAAAAAGAUCGGAAGAGCACACGUCU [U7G U8A G9A U10C C12A C13A] | 1.07
33 | GGGUCGGAACUAUAUAAUCGCGUGGAUAUGGCACGCAAGUUUCUACCGGGCACCGUAAAUGUCCGACUGGAGCCGUUCGGGCGGCUAUAAACAGACCUCAGGCCCGAAGCGUGGCGGCACCUGCCGCCGGUGGUAAAAAAGAUCGGAAGAGCACACGUCU [U7G U8A G9A U10C C12A C13U] | 1.08
34 | GGGUCGGAACUCUAUAAUCGCGUGGAUAUGGCACGCAAGUUUCUACCGGGCACCGUAAAUGUCCGACUGGAGCCGUUCGGGCGGCUAUAAACAGACCUCAGGCCCGAAGCGUGGCGGCACCUGCCGCCGGUGGUAAAAAAGAUCGGAAGAGCACACGUCU [U7G U8A G9A U10C C13U] | 1.13
35 | GGGUCGGAACUCGAUAAUCGCGUGGAUAUGGCACGCAAGUUUCUACCGGGCACCGUAAAUGUCCGACUGGAGCCGUUCGGGCGGCUAUAAACAGACCUCAGGCCCGAAGCGUGGCGGCACCUGCCGCCGGUGGUAAAAAAGAUCGGAAGAGCACACGUCU [U7G U8A G9A U10C C13G] | 1.07
36 | GGGUCGGAACUCAAUAAUCGCGUGGAUAUGGCACGCAAGUUUCUACCGGGCACCGUAAAUGUCCGACUGGAGCCGUUCGGGCGGCUAUAAACAGACCUCAGGCCCGAAGCGUGGCGGCACCUGCCGCCGGUGGUAAAAAAGAUCGGAAGAGCACACGUCU [U7G U8A G9A U10C C13A] | 1.09
